Data taken from US20250263489A1.
Positions count from the first letter of the chain named.

B1: humanized antibody hIGF25_PS (antibody, V domains shown)
VH: QVQLVQSGAEVKKPGASVKVSCKAPGYTFTSYWMHWVRQAPGQGLEWMGETNPSSSVTNYAQKFQGRVTLTVDTSTSTAYMELSSLRSEDTAVYYCTIGRGRGFAYWGQGTLVTVSS
VL: DIQMTQSPSSLSASVGDRVTITCRASQNINFWLSWYQQKPGKVPKLLIYKASNLHTGVPSRFSGSGSGTDFTLTISSLQPEDVATYYCLQGQSYPYTFGGGTKLEIK
B2: humanized antibody hIGF13_PS (antibody, V domains shown)
VH: B1 VH with V93T
VL: B1 VL
B3: IGF11-16 with alanine substitution of W at position 32 (CDR-L1) (antibody, V domains shown)
VH: QIQLQQPGAELVKPGASVKLSCKAPGYTFTSYWMHWVKQRPGQGLEWIGETNPSNSVTNYNEKFKSKATLTVDKSSSTAYMQLSSLTSEDSAVYYCTIGRGRGFAYWGQGTLVTVSA
VL: B1 VL with T5N, V15L, R18T, V19I, W32A, Y36C, K42N, V43I, V83I
B4: IGF11-16 with alanine substitution of W at position 33 (CDR-H1) (antibody, mouse IgG1, V domains shown)
VH: B3 VH with W33A
VL: B1 VL with T5N, V15L, R18T, V19I, Y36C, K42N, V43I, V83I
B5: IGF11-16 with alanine substitution of R at position 102 (CDR-H3) (antibody, mouse IgG1, V domains shown)
VH: B3 VH with R102A
VL: B1 VL with T5N, V15L, R18T, V19I, Y36C, K42N, V43I, V83I
B6: IGF11-16 with alanine substitution of S at position 54 (CDR-H2) (antibody, mouse IgG1, V domains shown)
VH: B3 VH with S54A
VL: B1 VL with T5N, V15L, R18T, V19I, Y36C, K42N, V43I, V83I
B7: IGF11-16 with alanine substitution of E at position 50 (CDR-H2) (antibody, mouse IgG1, V domains shown)
VH: B3 VH with E50A
VL: B1 VL with T5N, V15L, R18T, V19I, Y36C, K42N, V43I, V83I
B8: IGF11-16 with alanine substitution of F at position 64 (CDR-H2) (antibody, mouse IgG1, V domains shown)
VH: B3 VH with F64A
VL: B1 VL with T5N, V15L, R18T, V19I, Y36C, K42N, V43I, V83I
B9: IGF11-16 with alanine substitution of N at position 55 (CDR-H2) (antibody, mouse IgG1, V domains shown)
VH: B3 VH with N55A
VL: B1 VL with T5N, V15L, R18T, V19I, Y36C, K42N, V43I, V83I
B10: IGF11-16 with alanine substitution of N at position 52 (CDR-H2) (antibody, mouse IgG1, V domains shown)
VH: B3 VH with N52A
VL: B1 VL with T5N, V15L, R18T, V19I, Y36C, K42N, V43I, V83I
B11: IGF11-16 with alanine substitution of S at position 56 (CDR-H2) (antibody, mouse IgG1, V domains shown)
VH: B3 VH with S56A
VL: B1 VL with T5N, V15L, R18T, V19I, Y36C, K42N, V43I, V83I
B12: IGF11-16 with alanine substitution of N at position 59 (CDR-H2) (antibody, mouse IgG1, V domains shown)
VH: B3 VH with N59A
VL: B1 VL with T5N, V15L, R18T, V19I, Y36C, K42N, V43I, V83I
B13: IGF11-16 with alanine substitution of H at position 35 (CDR-H1) (antibody, mouse IgG1, V domains shown)
VH: B3 VH with H35A
VL: B1 VL with T5N, V15L, R18T, V19I, Y36C, K42N, V43I, V83I
B14: mouse parent antibody IGF11-16 (antibody, mouse IgG1, kappa, V domains shown)
VH: B3 VH
VL: DIQMNQSPSSLSASLGDTITITCRASQNINFWLSWCQQKPGNIPKLLIYKASNLHTGVPSRFSGSGSGTDFTLTISSLQPEDIATYYCLQGQSYPYTFGGGTKLEIKR

What follows are binders tested against recombinant human IGF-1 receptor histidine tag (305-GR-050, R&D SYSTEMS) (human) (UniProt P08069) (assay: SPR, Biacore T200, summary sentence of Table 16).

Binder	Kd
B1	< 0.1 nM
B2	< 0.1 nM

What follows are binders tested against recombinant human IGF-1 receptor histidine tag (305-GR-050, R&D SYSTEMS) (human) (UniProt P08069) (assay: antigen ELISA, plate-coated human recombinant IGF-1R, antibody at 5 nM, relative to IGF11-16).

Binder	Binding @5 nM vs IGF11-16 (% vs IGF11-16)	Binding vs IGF11-16 (EC50) (% vs IGF11-16)
B3	14	–
B4	–	9
B5	–	9
B6	–	97
B7	–	9
B8	–	84
B9	–	94
B10	–	21
B11	–	108
B12	–	112
B13	–	49

These binders were tested against recombinant human IGF-1 receptor histidine tag (305-GR-050, R&D SYSTEMS) (human) (UniProt P08069) (assay: SPR, Biacore T200, 40 C, IGF-1R-His captured by anti-histidine-tag antibody, antibody as analyte, single cycle kinetics, 1:1 Binding model).

Binder	Kd	koff	kon
B1	0.051 nM	0.000135 s⁻¹	2.87e+06 M⁻¹ s⁻¹
B2	0.0578 nM	0.000158 s⁻¹	2.85e+06 M⁻¹ s⁻¹
B14	0.0314 nM	7.72e-05 s⁻¹	2.67e+06 M⁻¹ s⁻¹
